The supplement of paper PMC7877785
± gives the uncertainty stated by the source.

Test: self-splicing fitness, log relative to wild type (ln ratio); higher = more splicing; Tetrahymena group I intron in knt gene, E. coli kanamycin selection, DiMSum; sequences stand for … in CUCUCU…GGAGGGAAAAGUUAUCAGGCAUGCACCUGGUAGCUAGUCUUUAAACCAAUAGAUUGCAUCGGUUUAAAAGGCAAGACCGUCAAAUUGCGGGAAAGGGGUCAACAGCCGUUCAGUACCAAGUCUCAGGGGAAACUUUGAGAUGGCCUUGCAAAGGGUAUGGUAAUAAGCUGACGGACAUGGUCCUAACCACGCAGCCAAGUCCUAAGUCAACAGAUCUUCUGUUGAUAUGGAUGCAGUUCACAGACUAAAUGUCGGUCGGGGAAGAUGUAUUCUUCUCAUAAGAUAUAGUCGGACCUCUCCUUAAUGGGAGCUAGCGGAUGAAGUGAUGCAACACUGGAGCCGCUGGGAACUAAUUUGUAUGCGAAAGUAUAUUGAUUAGUUUUGGAGUACUCGUGGUCG
Summary of the method: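 DiMSum derived fitness as the error-weighted combination of fold changes across replicates, kanamycin versus no kanamycin, normalised to wild type. E. coli BL21(DE3) held the library, which randomised all eight P1ex-region intron nucleotides within the knt kanamycin-resistance gene on pET-22b(+). Six replicate transformations grew overnight at 37°C or 30°C on LB agar with or without 25 μg/mL kanamycin, also containing 100 μg/mL carbenicillin, 50 μM IPTG and 0.2% rhamnose, and pooled colonies were amplicon-sequenced on an Illumina HiSeq 2500.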

Row | Sequence | self-splicing fitness (ln) (30 °C) | self-splicing fitness (ln) (37 °C)
1 | UGAUAGCAAUAUUACGUGCA | -0.486 ± 0.054 | 0.164 ± 0.076
2 | UAACAGCAAUAUUACGCUCA | -0.26 ± 0.091 | 0.174 ± 0.13
3 | GACUAGCAAUAUUACGAAAU | -1.07 ± 0.16 | 0.651 ± 0.26
4 | CAGCAGCAAUAUUACGAACG | -0.451 ± 0.073 | 0.304 ± 0.11
5 | GCGCAGCAAUAUUACGUCGU | -3.02 ± 0.12 | -2.75 ± 0.18
6 | GCCAAGCAAUAUUACGGGAA | -0.356 ± 0.064 | -0.585 ± 0.079
7 | ACGCAGCAAUAUUACGCACG | -1.8 ± 0.12 | -1.31 ± 0.12
8 | ACCGAGCAAUAUUACGAUGC | -1.97 ± 0.14 | -1.56 ± 0.14
9 | UAGCAGCAAUAUUACGACCU | -0.287 ± 0.13 | 0.328 ± 0.13
10 | CCAAAGCAAUAUUACGUCGG | -3.29 ± 0.18 | -2.23 ± 0.2
11 | UGGGAGCAAUAUUACGCGCG | -1.51 ± 0.3 | -0.924 ± 0.35
12 | CUAAAGCAAUAUUACGCUUG | -2.8 ± 0.15 | -1.58 ± 0.17
13 | AUUCAGCAAUAUUACGUCAG | -2.51 ± 0.15 | -1.67 ± 0.22
14 | GGCUAGCAAUAUUACGACUG | -1.54 ± 0.16 | -0.524 ± 0.22
15 | UGUAAGCAAUAUUACGAGGU | -4.29 ± 0.36 | -2.63 ± 0.28
16 | AGAAAGCAAUAUUACGUAAA | -2.15 ± 0.12 | -1.88 ± 0.14
17 | CGCGAGCAAUAUUACGCUAU | -3.44 ± 0.34 | -2.2 ± 0.23
18 | GUUAAGCAAUAUUACGAUGA | -1.33 ± 0.17 | 0.18 ± 0.11
19 | GUGUAGCAAUAUUACGACGU | 0.117 ± 0.095 | 0.9 ± 0.12
20 | GAACAGCAAUAUUACGCCGG | -1.56 ± 0.18 | -0.838 ± 0.24
21 | GGUGAGCAAUAUUACGACAA | -1.2 ± 0.26 | -0.76 ± 0.3
22 | CGGAAGCAAUAUUACGCUUU | -2.02 ± 0.18 | -3.26 ± 0.33
23 | CCCAAGCAAUAUUACGGUGA | -1.27 ± 0.07 | -1.16 ± 0.077
24 | UAGCAGCAAUAUUACGUACG | -1.2 ± 0.072 | -0.47 ± 0.1
25 | CGAUAGCAAUAUUACGAAAC | -1.44 ± 0.32 | 

Row | Sequence | self-splicing fitness (ln) (30 °C) | self-splicing fitness (ln) (37 °C)
26 | AUAUAGCAAUAUUACGCGUC | -3.3 ± 0.26 | -2.26 ± 0.28
27 | AAGCAGCAAUAUUACGCCUG | -2.41 ± 0.13 | -1.58 ± 0.14
28 | CGCGAGCAAUAUUACGUCCU |  | -1.69 ± 0.48
29 | UGAGAGCAAUAUUACGAGCG | -1.84 ± 0.24 | -1.81 ± 0.31
30 | CGCCAGCAAUAUUACGUAAC | -3.91 ± 0.24 | -2.96 ± 0.28
31 | UUAAAGCAAUAUUACGGACC | -2.27 ± 0.18 | 0.778 ± 0.16
32 | AACCAGCAAUAUUACGGCUA | -0.197 ± 0.048 | 0.0992 ± 0.063
33 | UACAAGCAAUAUUACGAGGA | -2.98 ± 0.2 | -1.8 ± 0.14
34 | UCUCAGCAAUAUUACGCCAA | -2.86 ± 0.27 | -2.74 ± 0.29
35 | AUCUAGCAAUAUUACGGGUU | -3.51 ± 0.15 | -3.09 ± 0.21
36 | CGAAAGCAAUAUUACGUAAU | -4.18 ± 0.18 | -2.3 ± 0.12
37 | AGAAAGCAAUAUUACGGAUU | -2.21 ± 0.14 | -0.867 ± 0.16
38 | UCUAAGCAAUAUUACGAUAA | -1.46 ± 0.17 | -0.693 ± 0.2
39 | AGACAGCAAUAUUACGGCGA | -0.438 ± 0.069 | -0.143 ± 0.083
40 | UCAUAGCAAUAUUACGGUAU |  | -2.43 ± 0.28
41 | GGGGAGCAAUAUUACGUAUU |  | -3.33 ± 0.42
42 | CAGCAGCAAUAUUACGCCCA | -1.98 ± 0.14 | -0.0298 ± 0.12
43 | GCCGAGCAAUAUUACGCUGG |  | -2.07 ± 0.33
44 | UACGAGCAAUAUUACGCUGC |  | -2.59 ± 0.41
45 | GCUGAGCAAUAUUACGGAAA | -2.86 ± 0.25 | -2.63 ± 0.32
46 | UGAAAGCAAUAUUACGCCCA | -0.309 ± 0.11 | 0.296 ± 0.16
47 | AGAUAGCAAUAUUACGGUAG | -3.93 ± 0.37 | -1.69 ± 0.21
48 | UCCGAGCAAUAUUACGGCUC |  | -0.168 ± 0.28
49 | CUAUAGCAAUAUUACGAUCG | -0.256 ± 0.075 | 0.439 ± 0.1
